According to doi:10.1101/2023.04.10.536149:

Experiments:
MBP-MafB WT [1] = target: T1, MBP-MafB WT (Homo sapiens, UniProt Q9Y5Q3 1-323); experiment: competition
MBP-MafB WT [2] = target: T1, MBP-MafB WT; experiment: EMSA
MBP-MafB ΔHis = MBP-MafB ΔHis (Homo sapiens, UniProt Q9Y5Q3 1-323, del131-167); experiment: EMSA

Binder	binding result (MBP-MafB WT [1])	binding result (MBP-MafB WT [2])	binding result (MBP-MafB ΔHis)
unlabelled MARE competitor (dsDNA) DNA 1: TGCTGACTCAGCA DNA 2: TGCTGAGTCAGCA	binds	–	–
IRDye700 MARE EMSA probe (dsDNA) DNA 1: TGCTGACTCAGCA DNA 2: TGCTGAGTCAGCA	–	binds	binds
